Source: publication PMC7429351, “Comparison of ligand binding and conformational stability of human calmodulin with its homolog from the malaria parasite Plasmodium falciparum” (FASEB BioAdvances, 2020)
Values joined by “and” are separate entries in the source; they are usually repeats but may differ in a detail not shown here. Identical values can stand only once. Like-named read-outs stand apart in the source and are kept apart here.

How the values were obtained:
[1] = target: T1, human CaM (Homo sapiens, UniProt P0DP23); assay: Isothermal titration calorimetry, ligand titrated with human CaCaM; assay type: binding; settings: ITC, 25°C, 1 mmol/L CaCl2, one set of sites model
T1 construct: properties of the whole protein can be explored with differential scanning calorimetry; made in house; host or cells: E coli
From the text: (§1) Titration curves were fitted with the models provided by the built‐in Origin software (MicroCal.).

[2] = target: T2, Pf CaM (Plasmodium falciparum, UniProt P62203); assay: Calcineurin activity assay, inhibition of Pf CaM function; assay type: biochemical; settings: for inhibition of Pf CaM function in CaN activity assay: screen of selected Malaria Box compounds
T2 construct: properties of the whole protein can be explored with differential scanning calorimetry; made in house; host or cells: E coli
Experimental: (§2) Calcineurin (PPase‐2B, CaN) was purchased from Promega (V6361, isolated from bovine brain). Dephosphorylation of the substrate p‐nitrophenyl phosphate (PNPP, Sigma, 1040) was followed by monitoring the increase in absorbance at 405 nm using a Perkin Elmer EnSpire microplate reader. The CaN activity was assayed by measuring the initial velocities at 28°C in 50 mmol/L Tris, pH 7.5 containing 0.001 unit/μL CaN, 0.1 mg/mL BSA, 20 mmol/L PNPP, 1 mmol/L NiCl2, and various amounts of CaM to determine dose‐response curves for CaN activation by CaM.

[3] = target: T2, Pf CaM; assay: biochemical; assay type: binding; settings: ITC
From the text: as §1

[4] = target: T3, human CaM (dansyl-labeled) (Homo sapiens, UniProt P0DP23); assay: Dansyl-CaM fluorescence titration, human CaM; assay type: binding; settings: hyperbolic fit
T3 construct: properties of the whole protein can be explored with differential scanning calorimetry; made in house; host or cells: E coli
Experimental: (§3) Spectra were collected using a Jobin Yvon Fluoromax‐3 spectrofluorometer at 25°C in the standard assay buffer containing either 1 mmol/L EGTA or 1 mmol/L CaCl2. Spectra were recorded three times, averaged, and corrected by subtracting the appropriate blank. Tyrosine fluorescence was excited at 274 nm, the emission was detected between 285 and 370 nm, and the intensities were recorded at 303 nm. In ANS binding assays, 10 μmol/L of ANS (8‐anilinonaphtalene‐1‐sulfonic acid, Fluka, 10417) was excited at 388 nm in the presence of 2 μmol/L CaM in standard assay buffer, and the emission was monitored from 410 to 600 nm. In experiments with dansyl‐labeled CaM, the fluorophore was excited at 340 nm, and the emission was monitored from 400 to 600 nm.

[5] = target: T1, human CaM; assay: Calcineurin activity assay, inhibition of human CaM function; assay type: biochemical
Experimental: as §2

[6] = target: T4, dansyl-labeled Pf CaM (Plasmodium falciparum, UniProt P62203); assay: Dansyl-CaM fluorescence titration, Pf CaM; assay type: binding; settings: hyperbolic fit
T4 construct: properties of the whole protein can be explored with differential scanning calorimetry; made in house; host or cells: E coli
Experimental: as §3

[7] = test system: 3D7 chloroquine sensitive but sulfadoxine resistant strain of P falciparum; set-up: method as in earlier work; settings: blood stage, 3D7 strain; ref MMV website (https://www.mmv.org/mmv-open/malaria-box/malaria-box-supporting-information); cited from earlier work
[8] = Differential scanning calorimetry thermal denaturation; assay type: physicochemical; settings: DSC; for T m1 / ΔH1 / ΔHv1: first transition; for T m1 / T m2: 1°C/min; for ΔH1 / ΔH2: calorimetric enthalpy; for ΔHv1 / ΔHv2: van't Hoff enthalpy; for T m2 / ΔH2 / ΔHv2: second transition
Experimental: Thermograms were measured in the standard assay buffer complemented with 1 mmol/L EGTA or CaCl2 using a VP‐DSC microcalorimeter (MicroCal). Protein samples at 0.75 mg/mL were heated at a scan rate of 1°C/min with no feedback. Data analysis was performed with the Origin software provided by MicroCal.

[9] = target: T5, human MLCK (Homo sapiens, UniProt Q15746); assay: MLCK activation by CaM (ADP-Glow); assay type: biochemical; settings: 30 minutes, room temperature
T5 construct: GST; purchased Sigma M9197
Experimental: Myosin light chain kinase (MLCK) was purchased from Sigma (M9197, human, recombinant, GST‐tagged). Enzyme activity was measured in standard buffer complemented with 0.5 mmol/L CaCl2, 2.5 mmol/L MgCl2, and 0.1 mg/mL BSA. When measuring activation by CaM, 20 μL reaction mixtures contained 3.5 ng/μL MLCK, 0.1 mg/mL MLCK substrate (Sigma SCP0196), 50 μmol/L ATP, 0.5 mmol/L DTT, and various amounts of CaM. Samples were incubated for 30 minutes at room temperature then ADP formed during the kinase reaction was detected using the ADP‐Glow Kinase Assay kit (Promega) according to the manufacturer's instructions. Luminescence values proportional to ADP concentration were normalized to maximal intensities obtained at saturating CaM concentrations.

[10] = test system: bovine PDE; assay: PDE activation by CaM; assay type: biochemical; settings: 150 nmol/L CaM, 1 mmol/L CaCl2
[11] = target: T6, bovine brain CaN (Bos taurus, UniProt P48452); assay: Calcineurin activation by CaM; assay type: biochemical; settings: PNPP substrate, 28°C
T6 construct: purchased Promega V6361; host or cells: bovine brain
Experimental: as §2

[12] = Differential scanning fluorimetry (nanoDSF, intrinsic fluorescence); assay type: physicochemical; settings: DSF, 5°C/min, C-domain Tyr fluorescence
Experimental: Denaturation curves were determined by detecting intrinsic protein fluorescence as a function of temperature using the Prometheus instrument (NanoTemper Technologies). Protein samples at 1.0‐1.5 mg/mL were heated at a scan rate of 5°C/min up to 110°C in the standard assay buffer using the designated set and capillaries. Data analysis was performed with the built‐in analysis software.

[13] = CD melting curves at 222 nm; assay type: physicochemical; settings: CD 222 nm
Experimental: CD spectra were recorded on Jasco J‐720 and J‐810 spectropolarimeters (Jasco) using quartz cuvettes with pathlengths of 1 mm in the far‐UV and 1 cm in the near‐UV range. Samples were measured in the standard assay buffer complemented with 1 mmol/L EGTA or CaCl2 at a protein concentration of 5‐8 μmol/L in the far‐UV and 210 μmol/L in the near‐UV. Spectra were recorded at least three times at a scan speed of 20 nm/min using a bandwidth and response time of 1 nm and 4 seconds, respectively. Secondary structure content was estimated using the BeStSel method available at http://bestsel.elte.hu. ^24 Melting curves were measured in standard assay buffer or 25 mmol/L phosphate, pH 7.0, in the presence of 1 mmol/L EGTA or saturating levels of CaCl2 monitoring the ellipticity at 222 nm for secondary structure changes or at 280 nm to monitor the signal of Tyr residues. A heating rate of 1 or 2°C/min was used. In a well‐sealed 1 mm‐cell, heating up to 110°C was possible.

[14] = target: T2, Pf CaM; assay: ANS binding fluorescence, Pf CaM; settings: 10 μmol/L ANS
Experimental: as §3

[15] = target: T1, human CaM; assay: ANS binding fluorescence, human CaM; settings: 10 μmol/L ANS

T6 sequence (P63099 2-170 partner limits assumed, other chains not shown): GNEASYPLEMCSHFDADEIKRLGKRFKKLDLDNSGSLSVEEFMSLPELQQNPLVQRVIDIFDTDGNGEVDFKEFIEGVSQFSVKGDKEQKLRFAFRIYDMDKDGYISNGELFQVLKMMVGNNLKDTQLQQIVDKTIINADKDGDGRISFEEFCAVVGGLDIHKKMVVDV
T5 sequence (Q15746 1425-1771 limits assumed): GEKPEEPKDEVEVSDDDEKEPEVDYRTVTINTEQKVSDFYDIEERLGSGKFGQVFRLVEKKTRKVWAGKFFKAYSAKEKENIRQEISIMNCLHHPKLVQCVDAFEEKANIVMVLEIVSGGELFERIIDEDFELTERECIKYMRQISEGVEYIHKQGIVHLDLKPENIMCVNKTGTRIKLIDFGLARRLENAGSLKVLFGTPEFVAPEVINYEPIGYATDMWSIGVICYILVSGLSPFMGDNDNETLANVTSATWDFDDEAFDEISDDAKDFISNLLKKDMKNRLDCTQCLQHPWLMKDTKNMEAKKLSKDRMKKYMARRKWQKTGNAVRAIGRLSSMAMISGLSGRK

## OC(CNCC1CCCO1)Cn1c2ccc(Cl)cc2c2cc(Cl)ccc21 (stereo not shown) [MMV396736]
[1]
  Kd: 2.5 ± 0.5 µM
[2]
  IC50: 6.2 ± 1.5 µM
  inhibition of Pf CaM function in CaN activity assay: showed inhibitory effect
[3]; 25°C, 1 mmol/L CaCl2, one set of sites model, read-out: K d
  Kd: 2.5 ± 0.2 µM
[3]; one set of sites model
  stoichiometry n: ~ 8 and 7.4 ± 0.1
[4]
  Kd: 1.8 ± 0.4 µM
[5]
  IC50: 1.6 ± 0.76 µM
[6]
  Kd: 2.4 ± 0.4 µM
[7]
  EC50: 1.06 µM

## Cl.N=c1n(CCN2CCCCC2)c2ccccc2n1CC(O)c1cccc(Br)c1 (stereo not shown) [MMV665902]
[2]
  inhibition of Pf CaM function in CaN activity assay: showed inhibitory effect

## CC[C@H](C)[C@H](NC(=O)CN)C(=O)NCC(=O)N[C@@H](C)C(=O)N[C@H](C(=O)N[C@@H](CC(C)C)C(=O)N[C@@H](CCCCN)C(=O)N[C@H](C(=O)N[C@@H](CC(C)C)C(=O)N[C@H](C(=O)N[C@H](C(=O)NCC(=O)N[C@@H](CC(C)C)C(=O)N1CCC[C@H]1C(=O)N[C@@H](C)C(=O)N[C@@H](CC(C)C)C(=O)N[C@H](C(=O)N[C@@H](CO)C(=O)N[C@@H](Cc1c[nH]c2ccccc12)C(=O)N[C@H](C(=O)N[C@@H](CCCCN)C(=O)N[C@@H](CCCNC(=N)N)C(=O)N[C@@H](CCCCN)C(=O)N[C@@H](CCCNC(=N)N)C(=O)N[C@@H](CCC(N)=O)C(=O)N[C@@H](CCC(N)=O)C(N)=O)[C@@H](C)CC)[C@@H](C)CC)[C@@H](C)O)[C@@H](C)O)C(C)C)C(C)C [melittin]
[3]; K d, one set of sites model, upper limit
  Kd: < 0.03 µM

## Pf CaCaM: Plasmodium falciparum calmodulin, Ca2+‐saturated form
[8]
  T m1: 92.6 ± 0.1 °C
  ΔH1: 47.8 ± 0.3 kcal/mol
  ΔHv1: 44.5 ± 0.3 kcal/mol
  T m2: 125.9 ± 0.2 °C
  ΔH2: 97.9 ± 2.2 kcal/mol
  ΔHv2: 65.7 ± 0.8 kcal/mol

## O=C(Nc1ccc(F)c(Cl)c1)Nc1ccc(Cl)c(Cl)c1 [MMV665953]
[2]
  inhibition of Pf CaM function in CaN activity assay: showed inhibitory effect

## Pf CaM: Recombinant Plasmodium falciparum calmodulin (Uniprot P62203) expressed in E coli
[9]
  EC50: ~0.015 µM
[10]
  increase of PDE activity: the same activation effect
[11]
  EC50: 0.001 µM
  activation by CaM (elevation of the basal activity): 2.1 fold
[12]
  T m: ~ 51 °C

## O=C(NCC(c1ccsc1)N1CCCCCC1)c1ccc(C(F)(F)F)cc1 (stereo not shown) [MMV396672]
[2]
  inhibition of Pf CaM function in CaN activity assay: showed inhibitory effect

## Pf apoCaM: Plasmodium falciparum calmodulin, Ca2+-free apo form
[12]
  T m: 51.2 ± 0.6 °C
[8]
  T m1: 54.7 ± 0.2 °C
  ΔH1: 41.2 ± 1.2 kcal/mol
  ΔHv1: 48.1 ± 0.4 kcal/mol
  T m2: 64.3 ± 0.1 °C
  ΔH2: 33.4 ± 1.2 kcal/mol
  ΔHv2: 53.5 ± 0.6 kcal/mol
[13]; in phosphate buffer of low ionic strength
  T m: 51.2 ± 0.1 °C
[13]; standard assay buffer
  T m: 54.4 ± 0.2 °C

## O=S(=O)(O)c1cccc2cccc(Nc3ccccc3)c12 [ANS, 8‐anilinonaphthalene‐1‐sulfonic acid]
[14]; 2 μmol/L CaCaM, compared with human CaCaM
  ANS binding (fluorescence): approximately twofold higher fluorescence intensity
[14]; 2 μmol/L apoprotein
  ANS binding (fluorescence): no ANS binding
[15]; 2 μmol/L CaCaM
  ANS binding (fluorescence): remarkable ANS binding
[15]; 2 μmol/L apoprotein
  ANS binding (fluorescence): no ANS binding
